Assay results: PMC3776556, “Crystal structures of the CPAP/STIL complex reveal its role in centriole assembly and human microcephaly” (eLife, 2013)

What was measured:
human STIL = details: ref Tang et al., 2011; cited from earlier work
From the text: Of particular interest in this regard is the putative centriolar CPAP–STIL complex, as mutations in both components result in MCPH ([Leal et al., 2003]; [Bond et al., 2005]; [Gul et al., 2006]; [Darvish et al., 2010]). CPAP and STIL are strictly required for centriole assembly: STIL at a very early stage ([Stevens et al., 2010b]; [Tang et al., 2011]; [Kitagawa et al., 2011a]; [Arquint et al., 2012]; [Vulprecht et al., 2012]) and CPAP slightly later ([Kirkham et al., 2003]; [Leidel and Gonczy, 2003]; [Basto et al., 2006]; [Kleylein-Sohn et al., 2007]; [Dobbelaere et al., 2008]; [Vulprecht et al ...

[1] = test system: centrioles in human cells; details: ref Kitagawa et al., 2011a; cited from earlier work
From the text: The structures we report here rev ...

[2] = test system: SAS-5 N-terminal domain (aa 1–202); assay: Ni-NTA pull-down of 35S-labelled SAS-4 fragments by SAS-5; format: binding, C. elegans; details: 25 mM HEPES, 100 mM NaCl, pH 7.4, 4°C, 30 min; SAS-5-6xHis bait on Ni-NTA
Method: SAS-4 constructs were cloned into a pET21a vector for in vitro transcription/translation. Proteins were expressed using the T7 TNT Quick Coupled Transcription/Translation System (Promega, Fitchburg, WI) with ^35S-Met labelling.
SAS-5 fragments were cloned into a pRSET-A vector with a C-terminal 6xHis tag. Proteins were expressed in E. coli Rosetta2(DE3) cells and purified on Ni-NTA agarose (Qiagen) using standard protocols. For pull-down experiments, proteins were dialysed into 25 mM HEPES, 100 mM NaCl, 20 mM imidazole, 1 mM DTT, 10% sucrose, 0.02% Tween-20, pH 7.4.
SAS-5 fragments were pre-incubated with 20 μl Ni-NTA beads for 45 min at 4°C. 10 μl of the SAS-4 IVTT product was added to the beads with 190 μl buffer and incubated at 4°C for 30 min. The beads were washed with 3 × 200 μl buffer and resuspended in 100 μl SDS-PAGE sample buffer. Samples were run on 10% SDS-PAGE gels and either stained with Coomassie or dried and exposed to a phosphor screen overnight. Phosphor screens were analysed on a Personal Molecular Imager System (Bio-Rad, Hercules, CA).

Molecule	yeast-two-hybrid interaction with STIL (human STIL)	centriole duplication [1]	centriole overgrowth on overexpression [1]	localisation of CPAP to the centriole [1]	interaction with SAS-5 in pull-down [2]
E1235V: human CPAP with MCPH mutation E1235V (cited studies) (protein, UniProt Q9HC77 1-1338, looked up, variant E1235V) Centrosomal P4.1-associated …: MFLMPTSSELNSGQNFLTQWMTNPSRAGVILNRGFPILEADKEKRAAVDISTSFPIKGTHFSDSFSFINEEDSLLEEQKLESNNPYKPQSDKSETHTAFPCIKKGPQVAACHSAPGHQEENKNDFIPDLASEFKEGAYKDPLFKKLEQLKEVQQKKQEQLKRQQLEQLQRLMEEQEKLLTMVSGQCTLPGLSLLPDDQSQKHRSPGNTTTGERATCCFPSYVYPDPTQEETYPSNILSHEQSNFCRTAHGDFVLTSKRASPNLFSEAQYQEAPVEKNNLKEENRNHPTGESILCWEKVTEQIQEANDKNLQKHDDSSEVANIEERPIKAAIGERKQTFEDYLEEQIQLEEQELKQKQLKEAEGPLPIKAKPKQPFLKRGEGLARFTNAKSKFQKGKESKLVTNQSTSEDQPLFKMDRQQLQRKTALKNKELCADNPILKKDSKARTKSGSVTLSQKPKMLKCSNRKSLSPSGLKIQTGKKCDGQFRDQIKFENKVTSNNKENVTECPKPCDTGCTGWNKTQGKDRLPLSTGPASRLAAKSPIRETMKESESSLDVSLQKKLETWEREKEKENLELDEFLFLEQAADEISFSSNSSFVLKILERDQQICKGHRMSSTPVKAVPQKTNPADPISHCNRSEDLDHTAREKESECEVAPKQLHSLSSADELREQPCKIRKAVQKSTSENQTEWNARDDEGVPNSDSSTDSEEQLDVTIKPSTEDRERGISSREDSPQVCDDKGPFKDTRTQEDKRRDVDLDLSDKDYSSDESIMESIKHKVSEPSRSSSLSLSKMDFDDERTWTDLEENLCNHDVVLGNESTYGTPQTCYPNNEIGILDKTIKRKIAPVKRGEDLSKSRRSRSPPTSELMMKFFPSLKPKPKSDSHLGNELKLNISQDQPPGDNARSQVLREKIIELETEIEKFKAENASLAKLRIERESALEKLRKEIADFEQQKAKELARIEEFKKEEMRKLQKERKVFEKYTTAARTFPDKKEREEIQTLKQQIADLREDLKRKETKWSSTHSRLRSQIQMLVRENTDLREEIKVMERFRLDAWKRAEAIESSLEVEKKDKLANTSVRFQNSQISSGTQVEKYKKNYLPMQGNPPRRSKSAPPRDLGNLDKGQAASPREPLEPLNFPDPEYKEEEEDQDIQGEISHPDGKVEKVYKNGCRVILFPNGTRKEVSADGKTITVTFFNGDVKQVMPDQRVIYYYAAAQTTHTTYPEGLEVLHFSSGQIVKHYPDGRKEITFPDQTVKNLFPDGQEESIFPDGTIVRVQRDGNKLIEFNNGQRELHTAQFKRREYPDGTVKTVYANGHQETKYRSGRIRVKDKEGNVLMDTEL	appeared to weaken this yeast-two-hybrid interaction	centriole duplication was compromised by both mutations	able to promote centriole overgrowth to a greater extent than the WT protein	did not effect the localisation of CPAP to the centriole	–
full-length SAS-4: in vitro translated full-length C. elegans SAS-4, 35S-labelled (protein, ^35S-Met labelling) MASDENIGADGEQKPSRPFLRKGQGTARFRMPRNNKTSAGAPPTSELSSASSPSINVPRFSLSNALPNSARTVDSGISNEDETRPPTTASLPMDQPSLSSSPENRLNPAPSVAEEHGHSGQHAEEEEDNDTDEVSAMPSFVPDEPSTLVNSDHELSDDALKYKNAAAEFKAFERRMDSMRSASTITTSLATPSSCAPSNSSEPPTRSTPIMNDLGVGPNNHNWPSSMQELSGISLETPQARPLGSNRINQLVRSEAQTGISLLQHHERPTVTAPLRRNDMMNSSRQNPQNGNVQDENRPEHVYDQPIHVPGSSLDRQKLEIEIRRHRNLNIQLRDTIAHLDYAEESVHTTKRQLEEKISEVNNFKKELIEEFKKCKKGVEEEFEKKFEKIKEDYDELYEKLKRDQRDLERDQKILKKGTGERNKEFTETIATLRDKLRASETKNAQYRQDIRVRDEKLKKKDEEIEKLQKDGNRLKSTLQTLEKRVKQLRTEKERDDKEKEMFAKVAMNRKTSNPVPPVLNQSVPISITSNGPSRHPSSSSLTTFRKPSTSNRERGVSWADEPNEQSLEAVPQEFLMMPVKEMPGKFGKCTIYRDSLGETSKVTDTIANGLLFEYSNGDLRWVNRQNAVNIYISAVDKTVRIDLPTYNISIIHTFQRQVEVLRPGNNITLISIKRREVRTDLIYQNGMYKTEIFNRDGRYVTKDFSNQEVSRKYNPGTHTYRDNQCRYVLVTDYNDFELVEPEFRLRWYQGDPTGLNNQYILKIIGRPECSEKTLRLEVNLSTCEGTLETAEMIGDKRRKTTLFQWKK	–	–	–	–	interacted specifically with the N-terminal domain (aa 1–202) of SAS-5
